In the supplement of paper PMC11246515:
± gives the standard deviation of the averaged measurements.

Assay: total protein half-life in vivo (active degradation + dilution); higher = more stable protein
[1] = E. coli NCM3722 delta-clpP delta-lon delta-hslV, growth: N-lim chemostat, doubling time 6 h
[2] = E. coli NCM3722 delta-clpP, growth: N-lim chemostat, doubling time 6 h
[3] = E. coli NCM3722 delta-hslV, growth: N-lim chemostat, doubling time 6 h
[4] = E. coli NCM3722 delta-lon, growth: N-lim chemostat, doubling time 6 h
[5] = E. coli NCM3722 delta-smpB, growth: N-lim chemostat, doubling time 6 h
[6] = wild type E. coli NCM3722, growth: C-lim chemostat, doubling time 3 h
[7] = wild type E. coli NCM3722, growth: C-lim chemostat, doubling time 12 h
[8] = wild type E. coli NCM3722, growth: N-lim chemostat, doubling time 6 h
[9] = wild type E. coli NCM3722, growth: N-lim chemostat, doubling time 12 h
[10] = wild type E. coli NCM3722, growth: P-lim chemostat, doubling time 6 h
[11] = wild type E. coli NCM3722, growth: P-lim chemostat, doubling time 12 h
[12] = wild type E. coli NCM3722, growth: C-lim chemostat, doubling time 6 h

MIGRLLRGGFMTAIYAYLYIPIIILIVNSFNSSRFGINWQGFTTKWYSLLMNNDSLLQAAQHSLTMAVFSATFATLIGSLTAVALYRYRFRGKPFVSGMLFVVMMSPDIVMAISLLVLFMLLGIQLGFWSLLFSHITFCLPFVVVTVYSRLKGFDVRMLEAAKDLGASEFTILRKIILPLAMPAVAAGWVLSFTLSMDDVVVSSFVTGPSYEILPLKIYSMVKVGVSPEVNALATILLVLSLVMVIASQLIARDKTKGNTGDVK [P0AFK6]
total protein half-life in vivo [1]: 5.93 h
total protein half-life in vivo [2]: 6.54 h
total protein half-life in vivo [3]: 5.12 h
total protein half-life in vivo [4]: 5.66 h
total protein half-life in vivo [5]: 5.65 ± 0.13 h
total protein half-life in vivo [6]: 3.13 ± 0.76 h
total protein half-life in vivo [7]: 14 h
total protein half-life in vivo [8]: 6.23 ± 0.36 h
total protein half-life in vivo [9]: 13.3 ± 0.85 h
total protein half-life in vivo [10]: 6.269 ± 0.021 h
total protein half-life in vivo [11]: 10.5 ± 2.2 h

MKWFNTLSHNRWLEQETDRIFDFGKNSVVPTGFGWLGNKGQIKEEMGTHLWITARMLHVYSVAAAMGRPGAYSLVDHGIKAMNGALRDKKYGGWYACVNDEGVVDASKQGYQHFFALLGAASAVTTGHPEARKLLDYTIEIIEKYFWSEEEQMCLESWDEAFSKTEEYRGGNANMHAVEAFLIVYDVTHDKKWLDRAIRVASVIIHDVARNNHYRVNEHFDTQWNPLPDYNKDNPAHRFRAFGGTPGHWIEWGRLMLHIHAALEARCEQPPAWLLEDAKGLFNATVRDAWAPDGADGIVYTVDWEGKPVVRERVRWPIVEAMGTAYALYTVTGDRQYETWYQTWWEYCIKYLMDYENGSWWQELDADNKVTTKVWDGKQDIYHLLHCLVIPRIPLAPGMAPAVAAGLLDINAK
total protein half-life in vivo [1]: 7.17 h
total protein half-life in vivo [12]: 4.37 h
total protein half-life in vivo [7]: 5.87 h

MSHRDTLFSAPIARLGDWTFDERVAEVFPDMIQRSVPGYSNIISMIGMLAERFVQPGTQVYDLGCSLGAATLSVRRNIHHDNCKIIAIDNSPAMIERCRRHIDAYKAPTPVDVIEGDIRDIAIENASMVVLNFTLQFLEPSERQALLDKIYQGLNPGGALVLSEKFSFEDAKVGELLFNMHHDFKRANGYSELEISQKRSMLENVMLTDSVETHKARLHNAGFEHSELWFQCFNFGSLVALKAEDAA
total protein half-life in vivo [1]: 4.36 ± 0.1 h
total protein half-life in vivo [2]: 4.266 ± 0.023 h
total protein half-life in vivo [3]: 3.422 ± 0.01 h
total protein half-life in vivo [4]: 4.69 ± 0.25 h
total protein half-life in vivo [5]: 3.28 ± 0.41 h
total protein half-life in vivo [6]: 2.85 ± 0.079 h
total protein half-life in vivo [12]: 4.75 ± 0.061 h
total protein half-life in vivo [7]: 6.64 ± 0.99 h
total protein half-life in vivo [8]: 3.17 ± 0.74 h
total protein half-life in vivo [9]: 4.86 ± 0.5 h
total protein half-life in vivo [10]: 4.66 ± 0.48 h
total protein half-life in vivo [11]: 9.24 ± 0.053 h

MSLTELTGNPRHDQLLMLIAERGYMNIDELANLLDVSTQTVRRDIRKLSEQGLITRHHGGAGRASSVVNTAFEQREVSQTEEKKAIAEAVADYIPDGSTIFITIGTTVEHVARALLNHNHLRIITNSLRVAHILYHNPRFEVMVPGGTLRSHNSGIIGPSAASFVADFRADYLVTSVGAIESDGALMEFDVNEANVVKTMMAHARNILLVADHTKYHASAAVEIGNVAQVTALFTDELPPAALKSRLQDSQIEIILPQEDA
total protein half-life in vivo [1]: 5.99 ± 0.15 h
total protein half-life in vivo [2]: 4.97 ± 0.17 h
total protein half-life in vivo [3]: 5.17 ± 0.35 h
total protein half-life in vivo [5]: 4.98 ± 0.86 h
total protein half-life in vivo [6]: 2.8 ± 0.12 h
total protein half-life in vivo [12]: 5.113 ± 0.0071 h
total protein half-life in vivo [7]: 10.7 ± 0.88 h
total protein half-life in vivo [8]: 4.89 ± 1 h
total protein half-life in vivo [9]: 8.59 h
total protein half-life in vivo [10]: 4.9 ± 0.25 h
total protein half-life in vivo [11]: 8.679 ± 0.03 h

MNHAPHLYFAWQQLVEKSQLMLRLATEEQWDELIASEMAYVNAVQEIAHLTEEVDPSTTMQEQLRPMLRLILDNESKVKQLLQIRMDELAKLVGQSSVQKSVLSAYGDQGGFVLAPQDNLF [P0ABY2]
total protein half-life in vivo [6]: 0.191 h

MKMNKSLIVLCLSAGLLASAPGISLADVNYVPQNTSDAPAIPSAALQQLTWTPVDQSKTQTTQLATGGQQLNVPGISGPVAAYSVPANIGELTLTLTSEVNKQTSVFAPNVLILDQNMTPSAFFPSSYFTYQEPGVMSADRLEGVMRLTPALGQQKLYVLVFTTEKDLQQTTQLLDPAKAYAKGVGNSIPDIPDPVARHTTDGLLKLKVKTNSSSSVLVGPLFGSSAPAPVTVGNTAAPAVAAPAPAPVKKSEPMLNDTESYFNTAIKNAVAKGDVDKALKLLDEAERLGSTSARSTFISSVKGKG
total protein half-life in vivo [1]: 5.04 ± 2.7 h
total protein half-life in vivo [2]: 3.08 h
total protein half-life in vivo [3]: 6.28 h
total protein half-life in vivo [4]: 3.75 ± 0.98 h
total protein half-life in vivo [5]: 2.82 ± 0.1 h
total protein half-life in vivo [6]: 2.84 ± 0.031 h
total protein half-life in vivo [12]: 4.94 ± 0.13 h
total protein half-life in vivo [7]: 10.5 ± 1.6 h
total protein half-life in vivo [8]: 3.93 ± 0.67 h
total protein half-life in vivo [9]: 7.51 ± 0.25 h
total protein half-life in vivo [10]: 4.18 h
total protein half-life in vivo [11]: 6.149 ± 0.0079 h

MSDVLRPYRDLFPQIGQRVMIDDSSVVIGDVRLADDVGIWPLVVIRGDVHYVQIGARTNIQDGSMLHVTHKSSYNPDGNPLTIGEDVTVGHKVMLHGCTIGNRVLVGMGSILLDGAIVEDDVMIGAGSLVPQNKRLESGYLYLGSPVKQIRPLSDEEKAGLRYSANNYVKWKDEYLDQGNQTQP [P0A9W9]
total protein half-life in vivo [2]: 5.73 ± 1.7 h
total protein half-life in vivo [3]: 5.34 ± 1.1 h
total protein half-life in vivo [4]: 5.32 ± 0.6 h
total protein half-life in vivo [5]: 4.72 ± 0.17 h
total protein half-life in vivo [6]: 3.04 ± 0.14 h
total protein half-life in vivo [7]: 10 ± 2 h
total protein half-life in vivo [8]: 5.36 ± 0.53 h
total protein half-life in vivo [9]: 8.69 ± 0.58 h
total protein half-life in vivo [10]: 6.25 ± 0.13 h
total protein half-life in vivo [11]: 14.3 ± 1.3 h
